The nanobody polyreactivity screen of Harvey et al. (2022)

Test: yeast display, Sf9 membrane polyspecificity reagent, FACS + sequencing; frameworks hold sequencing errors
How it was run: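 Using colony PCR, genes from sorted yeast display clones were amplified, then sequenced on MiSeq at 2 × 250 and filtered by CDR length. The clones had been stained with 10% biotinylated, detergent-solubilized Sf9 membrane reagent for 1 hour at 4 °C and sorted by FACS into low and high (top ~1%) gates on anti-HA and streptavidin fluorescence. Polyreactivity labels come from the gate of origin.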

Question: With “QVQLVESGGGLVQAGGSLRLSCAASGFTFWYYAMGWYRQAPGKEREFVASISWNGGRTYYADSVKGRITISRDNAKNTVYLQMNSLKPEDTAVYYCATRVIYSFTDLKGDYWGQGTLVTVSS” as the sequence, how does the “polyreactivity (PSR sort gate)” value read?
Answer: high polyreactivity

Question: For “QVQLVESGGGLVQAGGSLRLSCAASGFTFWYYAMGWYRQAPGKERELVAAITRGGSTNYADSVKGRFTISRDNAKNTVYLQMNSLKPEDTAVYYCAKRQGYPTYRRYDYWGQGTQVTVSS”, which “polyreactivity (PSR sort gate)” value is on record?
Answer: high polyreactivity

Question: For “QVQLVESGGGLVQAGGSLRLSCAASGFTFWYYAMGWYRQAPGKERELVATISRGGGSTYYADSVKGRFTISRDNAKNTVYLQMNSLKPEDTAVYYCAAETVRWWWLYDYWGQGTQVTVSS”, which “polyreactivity (PSR sort gate)” value is on record?
Answer: high polyreactivity

Question: With “QVQLVESGGGLVQAGGSLRLSCAASGFTFWYYSMGWYRQAPGKERELVASISRTGGTTYYADSVKGRFTISRDNAKNTVYLQLNSLKPEDTAVYYCNARPKVYYREYDYWGQGTQVTVSS” as the sequence, how does the “polyreactivity (PSR sort gate)” value read?
Answer: high polyreactivity

Question: With “QVQLVESGGGLVQAGGSLRLSCAASGFTFYANAMGWYRQAPGKERELVAAIDQSGTSTNYADSVKGRFTISRDNAKNTVYLQMNSLKPEDTAVYYCAADSSFYYYPLILFWGDYWGQGTQVTVSS” as the sequence, how does the “polyreactivity (PSR sort gate)” value read?
Answer: low polyreactivity

Question: With “QVQLVESGGGLVQAGGSLRLSCAASGFTFYAYAMGWYGQAPGKERELVAAITGRGGSTYYADSVKGRFTISRDNAKNTVYLQMNSLKPEDTAVYYCNKVKKSDKFNNFSNDYWGQGTQVTVSS” as the sequence, how does the “polyreactivity (PSR sort gate)” value read?
Answer: high polyreactivity

Question: For “QVQLVESGGGLVQAGGSLRLSCAASGFTFYDYAMGWYRQAPGKEREFVAAITWSGSSTYYADSVKGRFTISRDNAKNTVYLQMNSLKPEVTAVYYCAVGPFRRRGHYPTYYRYGYWGQGTQVTVSS”, which “polyreactivity (PSR sort gate)” value is on record?
Answer: high polyreactivity

Question: With “QVQLVESGGGLVQAGGSLRLSCAASGFTFYFNAMGWYRQAPGKERELVAGITSGGSTNYADSVKGRFTISRDNAKNTVYLQMNSLKPEDTAVYYCATDLLNNVDYDYWGQGTQVTVSS” as the sequence, how does the “polyreactivity (PSR sort gate)” value read?
Answer: low polyreactivity

Question: With “QVQLVESGGGLVQAGGSLRLSCAASGFTFYFYAMGWYRQAPGKERELVAAISRGGSTTYADSVKGRFTISRDNAKNTVYLQMNSLKPEDTAVYYCAVGYDIVRYSYSPFYRYDYWGQGTQVTVSS” as the sequence, how does the “polyreactivity (PSR sort gate)” value read?
Answer: low polyreactivity

Question: For “QVQLVESGGGLVQAGGSLRLSCAASGFTFYGNAMGWYRHAPGKERELVAAIRSGGITYYADSVKGRFTISRDNAKNTVYLQMNSLKPEDTSVYYCAAYSDYYLDQWYGYWGQGTQVTVSS”, which “polyreactivity (PSR sort gate)” value is on record?
Answer: low polyreactivity

Question: Which “polyreactivity (PSR sort gate)” value does the source give for “QVQLVESGGGLVQAGGSLRLSCAASGFTFYGNAMGWYRQAPGKERELVAAISSRVGRTYYADSVKGRFTISRDNAKNTVYLQMNSLKPEDTAVYYCAKAPYGVRRGLYDYWGQGTQVTVSS” here?
Answer: high polyreactivity

Question: With “QVQLVESGGGLVQAGGSLRLSCAASGFTFYGNAMGWYRQAPGKERELVAAISSTGGSTFYADSVKGRFTISRDNAKNTVYLQMNSLKPEDTAVYYCAVRRYTKFRSTRYYYWGQGTQVTVSS” as the sequence, how does the “polyreactivity (PSR sort gate)” value read?
Answer: high polyreactivity

Question: Which “polyreactivity (PSR sort gate)” value does the source give for “QVQLVESGGGLVQAGGSLRLSCAASGFTFYGYAMGWYRQAPGKERELVAAISTRGSRTYYADSVKGRFTISRDNAKNTVYLQMNSLKPEDTAVYYCARRRGPSYGLDYWGQGTQVTVSS” here?
Answer: high polyreactivity

Question: Which “polyreactivity (PSR sort gate)” value does the source give for “QVQLVESGGGLVQAGGSLRLSCAASGFTFYGYAMGWYRQAPGKERELVASINRSGGTTYYADSVKGRFTISRDNAKNTVYLQMNSLKPEDTAVYYCAASYVYRFTKYYYWGQGTQVTVSS” here?
Answer: high polyreactivity

Question: With “QVQLVESGGGLVQAGGSLRLSCAASGFTFYGYGMGWYRQAPGKERELVAGISSGGGSTIYADSVKGRFTISRDNAKNTVYLQMNSLKPEDTAVYYCAADYWPYSYDTYPAEFDYWGQGTQVTVSS” as the sequence, how does the “polyreactivity (PSR sort gate)” value read?
Answer: low polyreactivity

Question: For “QVQLVESGGGLVQAGGSLRLSCAASGFTFYHNAMGWYRQAPGKERELVATITARGGRTYYADSVKGRFTISRDNAKNTVYLQMNSLKPVDTAVYYCNVKASRGYTYEYDYWGQGTQVTVSS”, which “polyreactivity (PSR sort gate)” value is on record?
Answer: high polyreactivity

Question: With “QVQLVESGGGLVQAGGSLRLSCAASGFTFYKYTMGWYRQAPGKERELVAAISARGGSTYYADSVKGRFTISRDNAKNTVYLQMNSLKPEDTSVYYCAADFWRTYGLGYDYWGQGTQVTVSS” as the sequence, how does the “polyreactivity (PSR sort gate)” value read?
Answer: high polyreactivity

Question: For “QVQLVESGGGLVQAGGSLRLSCAASGFTFYKYVMGWYRQAPGKERELVAAITQGGGSTYYADSVKGRFTISRDNAKNTVYLQMNSLKPEDTAVYYCAAVTRGSRGVNFGYWGQGTQVTVSS”, which “polyreactivity (PSR sort gate)” value is on record?
Answer: high polyreactivity

Question: For “QVQLVESGGGLVQAGGSLRLSCAASGFTFYLYTIGWYRQAPWKERELVATITSDGGTNYADSVKVRFTISRDNAKNTLYLQMNSLKPEDTAVYYCNAASRRGSRKQAKYDYWGQGTQVTVSS”, which “polyreactivity (PSR sort gate)” value is on record?
Answer: low polyreactivity

Question: Which “polyreactivity (PSR sort gate)” value does the source give for “QVQLVESGGGLVQAGGSLRLSCAASGFTFYLYTMGWYRQAPGKERELVAAISWRGGGTYYADSVKGRFTISRDNAKNTVYLQMNSLKPEDTAVYYCAAYWRRRLDYYYWGQGTQVTVSS” here?
Answer: high polyreactivity

Question: For “QVQLVESGGGLVQAGGSLRLSCAASGFTFYLYTMGWYRQAPGKERELVATINSDGGTNYADSVKGRFTISRDNAKNSVYLQMNSLKPEDTAVYYCNAASRRGSRKQAKYEYWGQGTQVTVSS”, which “polyreactivity (PSR sort gate)” value is on record?
Answer: low polyreactivity

Question: For “QVQLVESGGGLVQAGGSLRLSCAASGFTFYNNAMGWYRQAPGKERELVAVITSNGGRTYYADSVKGRFTISRDNAKNTVYLQMNSLKPEDTAVYYCAKDYKALYLYHYRISGGDVDYWGQGTQVTVSS”, which “polyreactivity (PSR sort gate)” value is on record?
Answer: low polyreactivity

Question: Which “polyreactivity (PSR sort gate)” value does the source give for “QVQLVESGGGLVQAGGSLRLSCAASGFTFYPYAMGWYRQAPGKERELVAAITSGGRTNYADSVKGRFTISRDNAKNTVYLQMNSLKPEDTAVYYCNTVSWWGRNYQDEYYYWGQGTQVTVSS” here?
Answer: high polyreactivity

Question: Which “polyreactivity (PSR sort gate)” value does the source give for “QVQLVESGGGLVQAGGSLRLSCAASGFTFYPYTMGWYRQAPGKERELVAAISSSGGSTYYADSVKGRFTISRDNAKNTVYLQMNSLKPEDTAVYYCNKYQRNWFSRAPMDYWGQGTQVTVSS” here?
Answer: high polyreactivity

Question: Which “polyreactivity (PSR sort gate)” value does the source give for “QVQLVESGGGLVQAGGSLRLSCAASGFTFYPYVMGWYRQAPGKERELVAAINSGGARTYYADSVKGRFTISRDNAKNTVYLQMNSLKPEDTAVYYCAARTVVGGRIYYYWGQGTQVTVSS” here?
Answer: high polyreactivity

Question: Which “polyreactivity (PSR sort gate)” value does the source give for “QVQLVESGGGLVQAGGSLRLSCAASGFTFYQNAMGWYRQAPGKVRELVAAIDRRGGRTYNADSVKGRFTISRDNAKKTVYLQMNSLKPEDTAVYYCNKEKYYTGYDYWGQGTQVTVSS” here?
Answer: high polyreactivity

Question: With “QVQLVESGGGLVQAGGSLRLSCAASGFTFYQYAMGWYRQAPGKERELVAAITRRGGSTSYADSVKGRFTISRDNAKNTVYLQMNSLKPEDTAVYYCAREGSNSGRHGTLFDYWGQGTQVTVSS” as the sequence, how does the “polyreactivity (PSR sort gate)” value read?
Answer: high polyreactivity

Question: Which “polyreactivity (PSR sort gate)” value does the source give for “QVQLVESGGGLVQAGGSLRLSCAASGFTFYRNAMGWYRQAPGKERELVAAITWSGTSTYYADSVKGRFTISRDNAKNTVYLQMNSPKPEDTAVYYCNTVGYRGRSNSRFYYWGQGTQVTVSS” here?
Answer: high polyreactivity

Question: For “QVQLVESGGGLVQAGGSLRLSCAASGFTFYRYAMGWYRQAPGKEREFVASISWSGGSTYYADSVKGRFTISRDNAKNTVYLQMNSLKPEDTAVYYCAATSQAYWDLWSTYYTYYYWGQGTQVTVSS”, which “polyreactivity (PSR sort gate)” value is on record?
Answer: high polyreactivity

Question: With “QVQLVESGGGLVQAGGSLRLSCAASGFTFYRYAMGWYRQAPGKERELVAAISRGGSTNYADSVKGRFTISRDNAKNTVYLQMNSLKPEDTAVYYCNTRYVKGFYWGQGTQVTVSS” as the sequence, how does the “polyreactivity (PSR sort gate)” value read?
Answer: high polyreactivity

Question: Which “polyreactivity (PSR sort gate)” value does the source give for “QVQLVESGGGLVQAGGSLRLSCAASGFTFYRYAMGWYRQAPGKERELVAAISSTGDRTYYADSVKGRFTISRDNAKNTVYLQMNSLKPEDTAVYYCAAPYQNQVEFNYWGQGTQVTVSS” here?
Answer: high polyreactivity

Question: With “QVQLVESGGGLVQAGGSLRLSCAASGFTFYRYAMGWYRQAPGKERELVAAITWSGGSTYYADSVKGRFTISRDNAKNTVYLQMNSLKPEDTAVYYCAASRWIFQVNDYDYWGQGTQETVSS” as the sequence, how does the “polyreactivity (PSR sort gate)” value read?
Answer: high polyreactivity

Question: For “QVQLVESGGGLVQAGGSLRLSCAASGFTFYRYAMGWYRQAPGKERELVATISASGASTYYADSVKGRFSISRDNAKNNVYLQMNRLKPEDTAVYYCAVRYKSWYGFNYWGQGTQVTVSS”, which “polyreactivity (PSR sort gate)” value is on record?
Answer: high polyreactivity

Question: For “QVQLVESGGGLVQAGGSLRLSCAASGFTFYRYAMGWYRQAPGKERELVAVITRGGSTNYADSVKGRFTISRDNAKNTVYLQMNSLKPEDTAVYYCAARWFAGDWDYWYDYWGQGTQVTVSS”, which “polyreactivity (PSR sort gate)” value is on record?
Answer: low polyreactivity

Question: For “QVQLVESGGGLVQAGGSLRLSCAASGFTFYRYARGWYRQAPGKERELVAAISSDGTTYYADSVKGRFTISRDNATNTVYLQMNSLKPEDTAVYYCAKRGYYRSRRYDYWGQGTQVTVSS”, which “polyreactivity (PSR sort gate)” value is on record?
Answer: high polyreactivity

Question: Which “polyreactivity (PSR sort gate)” value does the source give for “QVQLVESGGGLVQAGGSLRLSCAASGFTFYRYDMGWYRQAPGKERELVAAITNNGGNTYYADSVKGRFTISRDNAKNTVYLQMNSLKPEDTAVYYCATKRYYWRGYWGQGTQVTVSS” here?
Answer: high polyreactivity

Question: With “QVQLVESGGGLVQAGGSLRLSCAASGFTFYRYTMGWYRPARGKESELVARITYSGGSTYYADSVKGRFTISRDNAKNTVYLQLNSVKPVDTAVYYCNARSDFYSRYGYKYDYWGQGTQVTVSS” as the sequence, how does the “polyreactivity (PSR sort gate)” value read?
Answer: high polyreactivity

Question: With “QVQLVESGGGLVQAGGSLRLSCAASGFTFYRYTMGWYRQAPGIYRELVAAISSGDSTYYADSVKGRFTISRDNAKNTVYLQMNSLKPEDTAVYYCAARQYSRGAIVYYWGQGTQVTVSS” as the sequence, how does the “polyreactivity (PSR sort gate)” value read?
Answer: high polyreactivity

Question: With “QVQLVESGGGLVQAGGSLRLSCAASGFTFYSKAMGWYRQAPGKERQLVATIRSDGRTNYADSVKGRFTISRDNAKNTVYLQMNSLNPEDTAVYYCNADYRNDWGTPLWYAYNYWGQGTQVTVSS” as the sequence, how does the “polyreactivity (PSR sort gate)” value read?
Answer: low polyreactivity

Question: With “QVQLVESGGGLVQAGGSLRLSCAASGFTFYSNAMGWSRQAPGKERELVATIRYRGGSTYADSVKGRFTISRDNAKNTVYLQMNSLKPEDTAVYYCAARKYRSFRQRTGDYWGQGTQVTVSS” as the sequence, how does the “polyreactivity (PSR sort gate)” value read?
Answer: high polyreactivity
